In patent publication US20260193348A1 (ANTENGENE BIOLOGICS, published 2026):

Experiments:
[1] = biological target: T1, GPRC5D on multiple myeloma cells (human, UniProt Q9NZD1 1-345); assay: FACS on MM.1S cells
T1 construct: whole, on cells; Endogenous GPRC5D on multiple myeloma cell lines; also called G-protein coupled receptor family C group 5 member D; MM.1S, MOLP-8, L363, RPMI8226 cells

[2] = biological target: T2, CD3 on T cells / Jurkat cells (human, UniProt P07766 23-207; P04234 22-171; P09693 23-182); assay: FACS on Jurkat cells
T2 construct: whole, on cells; Native CD3 complex on CD3+ T cells isolated from normal donors or on Jurkat cells; also called human CD3; CD3+ T cells
T2 sequence (P07766 23-207, chain 1 of 3): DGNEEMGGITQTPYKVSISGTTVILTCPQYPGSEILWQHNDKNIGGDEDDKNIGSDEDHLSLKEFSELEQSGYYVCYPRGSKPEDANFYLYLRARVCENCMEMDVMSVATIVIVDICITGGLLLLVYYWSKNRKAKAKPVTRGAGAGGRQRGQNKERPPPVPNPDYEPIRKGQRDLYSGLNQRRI
T2 sequence (P04234 22-171, chain 2 of 3): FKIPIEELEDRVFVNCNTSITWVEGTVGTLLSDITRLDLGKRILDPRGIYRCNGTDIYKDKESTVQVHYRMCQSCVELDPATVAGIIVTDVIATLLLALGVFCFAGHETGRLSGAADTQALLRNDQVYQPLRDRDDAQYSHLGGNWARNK
T2 sequence (P09693 23-182, chain 3 of 3): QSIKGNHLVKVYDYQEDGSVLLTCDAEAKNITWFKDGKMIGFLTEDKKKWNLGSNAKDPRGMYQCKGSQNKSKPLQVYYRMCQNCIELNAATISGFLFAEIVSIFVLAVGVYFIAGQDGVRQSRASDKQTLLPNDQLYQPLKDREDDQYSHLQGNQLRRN

T1 sequence (Q9NZD1 whole entry): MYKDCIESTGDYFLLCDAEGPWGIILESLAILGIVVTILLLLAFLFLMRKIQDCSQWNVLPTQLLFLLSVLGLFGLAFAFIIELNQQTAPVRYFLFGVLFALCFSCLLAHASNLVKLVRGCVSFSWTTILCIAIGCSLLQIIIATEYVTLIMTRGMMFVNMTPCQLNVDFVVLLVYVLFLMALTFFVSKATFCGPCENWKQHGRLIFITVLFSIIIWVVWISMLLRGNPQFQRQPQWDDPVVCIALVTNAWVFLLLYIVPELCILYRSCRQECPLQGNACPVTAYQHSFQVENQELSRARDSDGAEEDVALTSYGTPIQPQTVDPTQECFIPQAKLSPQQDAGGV

Binder	binding result [1]	binding result [2]
Bis-40E9-L2H16 (bispecific antibody, L234A/L235A) VH: EVQLVQSGAEVKKPGASVKVSCKASGYTFTSYVIHWVRQAPGQGLEWMGYFNPYNDGTKYNEEFKGRVTLTSDKSTSTAYMELRSLRSDDTAVYYCARGGVRRYFDVWGQGTTVTVSS VL: DIQMTQSPSSLSASVGDRVTITCRASQDIGSNLNWLQQKPGKAIKRLIYATFGLDSGVPSRFSGSRSGTDFTLTISSLQPEDFATYYCQQYASFPYTFGGGTKVEIK scFv: EVQLVQSGAEVKKPGSSVKVSCKASGYTFSDYVIHWVRQAPGQCLEWMGYINPYNDVIKYNEKFKGRVTLTSDKSTSTAYMELSSLRSEDTAVYYCARDSYYSYDGFAYWGQGTLVTVSSGGGGSGGGGSGGGGSGGGGSEIVLTQSPDFQSVTPKEKVTITCSASSSVSYMHWYQQKPDQSPKRLIYDTSKLASGVPSRFSGSGSGTDFTLTINSLEAEDAATYYCQQWSSNPPTFGCGTKVEIK	binds	binds
Bis-108+147-S32T.L (bispecific antibody, V domains shown, Fab-scFv-Fab (2+1): first VH/VL = anti-GPRC5D Fabs, second VH/VL = anti-CD3 scFv) VH 1: EVQLVQSGAEVKKPGASVKVSCKASGYTFTSYVIHWVRQAPGQGLEWMGYFNPYNDGTKYNEEFKGRVTLTSDKSTSTAYMELRSLRSDDTAVYYCARGGVRRYFDVWGQGTTVTVSS VL 1: DIQMTQSPSSLSASVGDRVTITCRASQDIGSNLNWLQQKPGKAIKRLIYATFGLDSGVPSRFSGSRSGTDFTLTISSLQPEDFATYYCQQYASFPYTFGGGTKVEIK VH 2: EVQLVQSGAEVKKPGSSVKVSCKASGYTFTSYWMHWVRQAPGQCLEWMGNINPSSGATNYNEKFKSRVTLTVDKSTSTAYMELSSLRSEDTAVYYCARDRSSQYYFDYWGQGTTVTVSS VL 2: DIVMTQSPDSLAVSLGERATINCKSSQSLLNTRSRKNYLAWYQQKPGQPPKLLIYWASTRESGVPDRFSGSGSGTDFTLTISSLQAEDVAVYYCTQSYTLRTFGCGTKVEIK	binds	binds
Bis-108+ch147 (bispecific antibody, V domains shown, Fab-scFv-Fab (2+1): two humanized anti-GPRC5D Fabs (first VH/VL) and one anti-CD3 scFv (second VH/VL, parental clone 147E11E2)) VH 1: EVQLVQSGAEVKKPGASVKVSCKASGYTFTSYVIHWVRQAPGQGLEWMGYFNPYNDGTKYNEEFKGRVTLTSDKSTSTAYMELRSLRSDDTAVYYCARGGVRRYFDVWGQGTTVTVSS VL 1: DIQMTQSPSSLSASVGDRVTITCRASQDIGSNLNWLQQKPGKAIKRLIYATFGLDSGVPSRFSGSRSGTDFTLTISSLQPEDFATYYCQQYASFPYTFGGGTKVEIK VH 2: QVQLQQPGTELVKPGTSVKLSCKASGYTFTSYWMHWVKQRPGQCLEWIGNINPSNGATNYNEKFKSKATLTVDKSSSTAYMQLSSLTSEDSAVYYCARDRSSQYYFDYWGQGTTLTVSS VL 2: DIVMSQSPSSLAVSAGEKVTMSCKSSQSLLNSRSRKNYLAWYQQKPGQSPKLLIYWASTRESGVPDRFTGSGSGTDFTLTISSVQAEDLAVYYCTQSYTLRTFGCGTKLEIK	binds	binds
Bis-40E9-L2H7 (bispecific antibody, L234A/L235A) VH: EVQLVQSGAEVKKPGASVKVSCKASGYTFTSYVIHWVRQAPGQGLEWMGYFNPYNDGTKYNEEFKGRVTLTSDKSTSTAYMELRSLRSDDTAVYYCARGGVRRYFDVWGQGTTVTVSS VL: DIQMTQSPSSLSASVGDRVTITCRASQDIGSNLNWLQQKPGKAIKRLIYATFGLDSGVPSRFSGSRSGTDFTLTISSLQPEDFATYYCQQYASFPYTFGGGTKVEIK scFv: EVQLVQSGAEVKKPGSSVKVSCKASGYTFSSYVIHWVRQAPGQCLEWMGYINPGNGVIKYNEKFKGRVTLTSDKSTSTAYMELSSLRSEDTAVYYCARDSYSSYDGFAYWGQGTLVTVSSGGGGSGGGGSGGGGSGGGGSEIVLTQSPDFQSVTPKEKVTITCSASSSVSYMHWYQQKPDQSPKRLIYDTSKLASGVPSRFSGSGSGTDFTLTINSLEAEDAATYYCQQWSSNPPTFGCGTKVEIK	binds	binds
Bis-40E9-L5H7 (bispecific antibody, L234A/L235A) VH: EVQLVQSGAEVKKPGASVKVSCKASGYTFTSYVIHWVRQAPGQGLEWMGYFNPYNDGTKYNEEFKGRVTLTSDKSTSTAYMELRSLRSDDTAVYYCARGGVRRYFDVWGQGTTVTVSS VL: DIQMTQSPSSLSASVGDRVTITCRASQDIGSNLNWLQQKPGKAIKRLIYATFGLDSGVPSRFSGSRSGTDFTLTISSLQPEDFATYYCQQYASFPYTFGGGTKVEIK scFv: EVQLVQSGAEVKKPGSSVKVSCKASGYTFSSYVIHWVRQAPGQCLEWMGYINPGNGVIKYNEKFKGRVTLTSDKSTSTAYMELSSLRSEDTAVYYCARDSYSSYDGFAYWGQGTLVTVSSGGGGSGGGGSGGGGSGGGGSEIVLTQSPDFQSVTPKEKVTITCSASSSVSYMHWYQQKPDQSPKRLIYDTSKLASGVPSRFSGSGSGTDFTLTINSLEAEDAATYYCQQWRSSPPTFGCGTKVEIK	binds	binds
Bis-40E9-L2H14 (bispecific antibody, L234A/L235A) VH: EVQLVQSGAEVKKPGASVKVSCKASGYTFTSYVIHWVRQAPGQGLEWMGYFNPYNDGTKYNEEFKGRVTLTSDKSTSTAYMELRSLRSDDTAVYYCARGGVRRYFDVWGQGTTVTVSS VL: DIQMTQSPSSLSASVGDRVTITCRASQDIGSNLNWLQQKPGKAIKRLIYATFGLDSGVPSRFSGSRSGTDFTLTISSLQPEDFATYYCQQYASFPYTFGGGTKVEIK scFv: EVQLVQSGAEVKKPGSSVKVSCKASGYTFSSYVIHWVRQAPGQCLEWMGYINPYNDVIKYNEKFKGRVTLTSDKSTSTAYMELSSLRSEDTAVYYCARESYYSYDGFAYWGQGTLVTVSSGGGGSGGGGSGGGGSGGGGSEIVLTQSPDFQSVTPKEKVTITCSASSSVSYMHWYQQKPDQSPKRLIYDTSKLASGVPSRFSGSGSGTDFTLTINSLEAEDAATYYCQQWSSNPPTFGCGTKVEIK	binds	binds
Bis-108+147-N37K.L (bispecific antibody, V domains shown, Fab-scFv-Fab (2+1): first VH/VL = anti-GPRC5D Fabs, second VH/VL = anti-CD3 scFv) VH 1: EVQLVQSGAEVKKPGASVKVSCKASGYTFTSYVIHWVRQAPGQGLEWMGYFNPYNDGTKYNEEFKGRVTLTSDKSTSTAYMELRSLRSDDTAVYYCARGGVRRYFDVWGQGTTVTVSS VL 1: DIQMTQSPSSLSASVGDRVTITCRASQDIGSNLNWLQQKPGKAIKRLIYATFGLDSGVPSRFSGSRSGTDFTLTISSLQPEDFATYYCQQYASFPYTFGGGTKVEIK VH 2: EVQLVQSGAEVKKPGSSVKVSCKASGYTFTSYWMHWVRQAPGQCLEWMGNINPSSGATNYNEKFKSRVTLTVDKSTSTAYMELSSLRSEDTAVYYCARDRSSQYYFDYWGQGTTVTVSS VL 2: DIVMTQSPDSLAVSLGERATINCKSSQSLLNSRSRKKYLAWYQQKPGQPPKLLIYWASTRESGVPDRFSGSGSGTDFTLTISSLQAEDVAVYYCTQSYTLRTFGCGTKVEIK	binds	binds
Bis-108+147-R33A.L (bispecific antibody, V domains shown, Fab-scFv-Fab (2+1): first VH/VL = anti-GPRC5D Fabs, second VH/VL = anti-CD3 scFv) VH 1: EVQLVQSGAEVKKPGASVKVSCKASGYTFTSYVIHWVRQAPGQGLEWMGYFNPYNDGTKYNEEFKGRVTLTSDKSTSTAYMELRSLRSDDTAVYYCARGGVRRYFDVWGQGTTVTVSS VL 1: DIQMTQSPSSLSASVGDRVTITCRASQDIGSNLNWLQQKPGKAIKRLIYATFGLDSGVPSRFSGSRSGTDFTLTISSLQPEDFATYYCQQYASFPYTFGGGTKVEIK VH 2: EVQLVQSGAEVKKPGSSVKVSCKASGYTFTSYWMHWVRQAPGQCLEWMGNINPSSGATNYNEKFKSRVTLTVDKSTSTAYMELSSLRSEDTAVYYCARDRSSQYYFDYWGQGTTVTVSS VL 2: DIVMTQSPDSLAVSLGERATINCKSSQSLLNSASRKNYLAWYQQKPGQPPKLLIYWASTRESGVPDRFSGSGSGTDFTLTISSLQAEDVAVYYCTQSYTLRTFGCGTKVEIK	binds	binds
Bis-40E9-L2H6 (bispecific antibody, L234A/L235A) VH: EVQLVQSGAEVKKPGASVKVSCKASGYTFTSYVIHWVRQAPGQGLEWMGYFNPYNDGTKYNEEFKGRVTLTSDKSTSTAYMELRSLRSDDTAVYYCARGGVRRYFDVWGQGTTVTVSS VL: DIQMTQSPSSLSASVGDRVTITCRASQDIGSNLNWLQQKPGKAIKRLIYATFGLDSGVPSRFSGSRSGTDFTLTISSLQPEDFATYYCQQYASFPYTFGGGTKVEIK scFv: EVQLVQSGAEVKKPGSSVKVSCKASGYTFSSYVIHWVRQAPGQCLEWMGYINPYNDVIKYNEKFKGRVTLTSDKSTSTAYMELSSLRSEDTAVYYCARESFSSYDGFAYWGQGTLVTVSSGGGGSGGGGSGGGGSGGGGSEIVLTQSPDFQSVTPKEKVTITCSASSSVSYMHWYQQKPDQSPKRLIYDTSKLASGVPSRFSGSGSGTDFTLTINSLEAEDAATYYCQQWSSNPPTFGCGTKVEIK	binds	binds
Bis-108+147-K36R.L (bispecific antibody, V domains shown, Fab-scFv-Fab (2+1): first VH/VL = anti-GPRC5D Fabs, second VH/VL = anti-CD3 scFv) VH 1: EVQLVQSGAEVKKPGASVKVSCKASGYTFTSYVIHWVRQAPGQGLEWMGYFNPYNDGTKYNEEFKGRVTLTSDKSTSTAYMELRSLRSDDTAVYYCARGGVRRYFDVWGQGTTVTVSS VL 1: DIQMTQSPSSLSASVGDRVTITCRASQDIGSNLNWLQQKPGKAIKRLIYATFGLDSGVPSRFSGSRSGTDFTLTISSLQPEDFATYYCQQYASFPYTFGGGTKVEIK VH 2: EVQLVQSGAEVKKPGSSVKVSCKASGYTFTSYWMHWVRQAPGQCLEWMGNINPSSGATNYNEKFKSRVTLTVDKSTSTAYMELSSLRSEDTAVYYCARDRSSQYYFDYWGQGTTVTVSS VL 2: DIVMTQSPDSLAVSLGERATINCKSSQSLLNSRSRRNYLAWYQQKPGQPPKLLIYWASTRESGVPDRFSGSGSGTDFTLTISSLQAEDVAVYYCTQSYTLRTFGCGTKVEIK	binds	binds
Bis-108+147-N31Y.L (bispecific antibody, V domains shown, Fab-scFv-Fab (2+1): first VH/VL = anti-GPRC5D Fabs, second VH/VL = anti-CD3 scFv) VH 1: EVQLVQSGAEVKKPGASVKVSCKASGYTFTSYVIHWVRQAPGQGLEWMGYFNPYNDGTKYNEEFKGRVTLTSDKSTSTAYMELRSLRSDDTAVYYCARGGVRRYFDVWGQGTTVTVSS VL 1: DIQMTQSPSSLSASVGDRVTITCRASQDIGSNLNWLQQKPGKAIKRLIYATFGLDSGVPSRFSGSRSGTDFTLTISSLQPEDFATYYCQQYASFPYTFGGGTKVEIK VH 2: EVQLVQSGAEVKKPGSSVKVSCKASGYTFTSYWMHWVRQAPGQCLEWMGNINPSSGATNYNEKFKSRVTLTVDKSTSTAYMELSSLRSEDTAVYYCARDRSSQYYFDYWGQGTTVTVSS VL 2: DIVMTQSPDSLAVSLGERATINCKSSQSLLYSRSRKNYLAWYQQKPGQPPKLLIYWASTRESGVPDRFSGSGSGTDFTLTISSLQAEDVAVYYCTQSYTLRTFGCGTKVEIK	binds	binds
